Measured values reported in the RNAGym collection of RNA variant scans (doi:10.7554/elife.80360).

B1: HDV Ribozyme (parent)
chain: GGCCGGCAUGGUCCCAGCCUCCUCGCUGGCGCCGGCUGGGCAACAUUCCGAGGGGACCGUCCCCUCGGUAAUGGCGAAUGGGACCCA

Variants of: B1
Experiment: self-cleavage, relative activity (ratio to wild type); higher = more cleavage; co-transcriptional

Row | Variant | self-cleavage
1 | GGCCGGCAUGGCCCCAGCCUCCUCGCUGGCGGCGGCUGGGCAACAUUCCGAGGGGACCGUCCCCUCGGUAAUGGCGAAUGGGACCCA [U12C C32G] | 0
2 | GGCCGGCAUGGUCCCAGCCUCCUCGCUGGCGGCGGCUGGGCAACAUUCCGAGGGGACCGUCCCCUCGGCAAUGGCGAAUGGGACCCA [C32G U69C] | 0.0639
3 | GGCCGGCAUGGUCCCAGCCUCCUCGCUGGCGCCGGCUGGGCAACAUUCCGAGGUGACCGUCCCCUCGGUAAUGGCGAAUGGCACCCA [G54U G82C] | 0.237
4 | GGCCGGCAUGGUCCCAGCCUCCUCGCUGGCGCCGGCUGGGCAACAUUCCGAGGGGACCGUCCCCUCGGUAAUGGCGACCGGGACCCA [A78C U79C] | 0.153
5 | GGCCGGCAUGGUCUCAUCCUCCUCGCUGGCGCCGGCUGGGCAACAUUCCGAGGGGACCGUCCCCUCGGUAAUGGCGAAUGGGACCCA [C14U G17U] | 0.511
6 | GACCGGCAUGGUCCCAGCCUCCUCGCUGGCGCCGGCUGGGGAACAUUCCGAGGGGACCGUCCCCUCGGUAAUGGCGAAUGGGACCCA [G2A C41G] | 0.0645
7 | GGCCGGCAUGGUCCCAGCCUCCUCGCUGGCGCCGGCUGAGCAACAUUCCGAGGGGACCGUCCCCUCGGUAAUGGCGAAUGGGACGCA [G39A C85G] | 0.523
8 | GGACGGCAUGGUCCCAGCCUCCUCGCUGGUGCCGGCUGGGCAACAUUCCGAGGGGACCGUCCCCUCGGUAAUGGCGAAUGGGACCCA [C3A C30U] | 0.143
9 | GGCCGGCAUGGUCCCAGCCUCCUCGCUGGCGCCGGCUGGGCAACAUUUCGCGGGGACCGUCCCCUCGGUAAUGGCGAAUGGGACCCA [C48U A51C] | 0.919
10 | GGCCGGCAUGGUCCCAGCCUCCUCGCUGGUGCCGGCUGGGCAACAUUCCGAGGGGACCGUCCCCUCGGUAAUGGCGAUUGGGACCCA [C30U A78U] | 0.101
11 | GGCCGGCAUGGUACCAGCCUCCUAGCUGGCGCCGGCUGGGCAACAUUCCGAGGGGACCGUCCCCUCGGUAAUGGCGAAUGGGACCCA [C13A C24A] | 0
12 | GGCCGGCAUGGUCCCACCCUCCUCGCUGGCGCCGGCUGGGCAACAUUCCGAGGGGACCGUCCCCUUGGUAAUGGCGAAUGGGACCCA [G17C C66U] | 0.156
13 | GGCCGGCAUGGUCUCAGCCUCCUCGCUGGCGCCGGCUGGGCAACAUUCCGAGGGGACCGUCCCCUCGGUAAUGGCGAAUGGGACCUA [C14U C86U] | 0.875
14 | GGCCGGCAUGGUCCCAGCCUCCUCGCGGGCGCCGGCUGGGCAACAUUCCGAGGGGACCGUCCCCUCGGUAAUGGCGAAUGGGACCCU [U27G A87U] | 0.763
15 | GGCCGGCAUGGUCCCAGCCUCCUCGGUGGCGCCGGCUGGGCAACAUUCCGAGGGGACCCUCCCCUCGGUAAUGGCGAAUGGGACCCA [C26G G59C] | 0.87
16 | GGCCGGCAUGGUCCCAGCCUCCUCGCUGGCGCAGGCUGGGCAACAUUCCGAGUGGACCGUCCCCUCGGUAAUGGCGAAUGGGACCCA [C33A G53U] | 0.277

Row | Variant | self-cleavage
17 | GGCCGGCAUGGUCCCAGCCUCCUCGCUGGCGCCGGCUGGGCAAUAUUCCGAGGGGACCGUCCCCUCGCUAAUGGCGAAUGGGACCCA [C44U G68C] | 0.529
18 | GGCCGGCAUGGUCCCAGUCUCCUCGCUGGCGCCGGCUGGGCAACAUUCCGAGGGGACCGUCCACUCGGUAAUGGCGAAUGGGACCCA [C18U C63A] | 0.293
19 | GGCCGGCAUGGUCCCAGCCUCCUCGCUGGCGCCGGCUGGGCAACAUUCCGAGGGGACCGUCCCCUCCGUAAUGGCGAAUAGGACCCA [G67C G80A] | 0.464
20 | GGCCGGCAUGGUCCCAGCCUCCUCGCUGGCGCCGGCUGGGCAACAUUCCGAGGGGGCCGUCCCCUCGGUAAUGGCGAAUGGGACGCA [A56G C85G] | 0.831
21 | GGCCGGCAUGGUCCCAGCCUCCUCGCUGGCGCCGGCUGGGCAACAUUCCGGGGGGACAGUCCCCUCGGUAAUGGCGAAUGGGACCCA [A51G C58A] | 0.98
22 | GGCCGGCAUGGUCCCAGCCUCCUCGCUGGCGCCGGCUGGGCAACAGUCCGAGGGGAACGUCCCCUCGGUAAUGGCGAAUGGGACCCA [U46G C57A] | 0.635
23 | GGCCGGCAUGGUCCCAGCCUCCUCGCUGGCGCCGGCUGGGCAACAUUCCGAGGGAACCGUCCCCUCGGUAAUGGCGAUUGGGACCCA [G55A A78U] | 0.201
24 | GGCCGGCAUGGUCCCAGCCUCCUCGCUGGCGCCGGCUGGGCAACAUUCCGAGGGGACCGUCCCCUCGGUAAUGGCGACGGGGACCCA [A78C U79G] | 0.113
25 | GGCCGUCAUGGUCGCAGCCUCCUCGCUGGCGCCGGCUGGGCAACAUUCCGAGGGGACCGUCCCCUCGGUAAUGGCGAAUGGGACCCA [G6U C14G] | 0.166
26 | GGCCGGCAUGGUCCCAGCCUCCUCGCUGGCGCCGGCUGGGCAACCUUCCGAGGGGACCGUCCCCUCGGUAAUGGCGCAUGGGACCCA [A45C A77C] | 0.277
27 | GGCCGGCAUGGUCCCAGCCUCCUCGCUGGCGCCGGCUGGGCAACAUUCCGAGGGGAGCGUCCCCUCGGUAAUGGCGAAUGGGCCCCA [C57G A83C] | 0.554
28 | GGCCGGCAUGGUCCCAGCCUCCUCGCUGGCGCCCGCUGGGCAACAUCCCGAGGGGACCGUCCCCUCGGUAAUGGCGAAUGGGACCCA [G34C U47C] | 0.185
29 | GGCCGGCAUGGCCCCAGCCUCCUCGCUGGCGCCGGAUGGGCAACAUUCCGAGGGGACCGUCCCCUCGGUAAUGGCGAAUGGGACCCA [U12C C36A] | 0.142
30 | GGCCGGCAUGGUCCCAGCCUCCUCGCUGGCGCCGGCUGGUCAACAUUCCGAGGGGACCGUCCCCUCGAUAAUGGCGAAUGGGACCCA [G40U G68A] | 0.722
31 | GGCCGGCAUGGGGCCAGCCUCCUCGCUGGCGCCGGCUGGGCAACAUUCCGAGGGGACCGUCCCCUCGGUAAUGGCGAAUGGGACCCA [U12G C13G] | 0.639
32 | GCCCGGCAUGGUCCCUGCCUCCUCGCUGGCGCCGGCUGGGCAACAUUCCGAGGGGACCGUCCCCUCGGUAAUGGCGAAUGGGACCCA [G2C A16U] | 0.0282
